US20190062448A1, “ANTI-CD39 ANTIBODIES, COMPOSITIONS COMPRISING ANTI-CD39 ANTIBODIES AND METHODS OF USING ANTI-CD39 ANTIBODIES” (Tizona Therapeutics, priority 2017, published 2019)
“Also recorded” adds a separate entry of the source.

Key:
[1] = molecular target: T1, human-mouse CD39 chimeras (Homo sapiens, UniProt P49961, D150A/E143Q/E153S/L144S/N158S/R147E/R154T/S157K/V151A); assay: Binding to human-mouse CD39 chimeras and point mutants expressed in CHO cells (FACS); settings: 15 μg/ml antibody
T1 construct: expressed in transfected cells; host or cells: CHO cells
T1 sequence (P49961 1-510 E143Q/L144S/R147E/D150A/V151A/E153S/R154T/S157K/N158S): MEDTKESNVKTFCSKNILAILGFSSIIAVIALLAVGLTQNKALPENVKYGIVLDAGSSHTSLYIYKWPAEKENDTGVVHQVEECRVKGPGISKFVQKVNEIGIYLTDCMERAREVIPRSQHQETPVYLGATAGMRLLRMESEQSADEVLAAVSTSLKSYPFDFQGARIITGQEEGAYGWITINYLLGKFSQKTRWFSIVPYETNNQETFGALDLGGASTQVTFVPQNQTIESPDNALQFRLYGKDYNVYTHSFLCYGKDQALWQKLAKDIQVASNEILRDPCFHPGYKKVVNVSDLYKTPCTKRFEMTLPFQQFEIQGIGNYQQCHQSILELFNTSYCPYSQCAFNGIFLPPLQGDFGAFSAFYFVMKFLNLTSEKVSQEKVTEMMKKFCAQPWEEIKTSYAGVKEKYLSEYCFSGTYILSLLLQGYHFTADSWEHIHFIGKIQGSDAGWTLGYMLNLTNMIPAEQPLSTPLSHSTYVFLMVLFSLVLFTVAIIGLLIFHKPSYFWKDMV
Method: (§1) Chimeras were generated by replacing human CD39 with mouse CD39 sequence in mammalian expression vectors. The chimeras were expressed in CHO cells and the ability of anti-human CD39 antibodies to bind the chimeras tested via FACS. In brief, cells were washed and blocked in FACS buffer (PBS/2% FBS) for 30 min on ice. They were then incubated with 15 μg/ml anti-human CD39 antibodies diluted in FACS buffer×1 h on ice. After 2 washes, cells were incubated with fluorescently labeled anti-human Fc antibodies, anti-mouse Fc antibodies, or anti-mCD39 antibody (R&D Systems 495826) diluted in FACS buffer per manufacturers' instructions×30 min on ice. After 2 washes, cells were resuspended in FACS buffer and analyzed on BD Fortessa. Data was processed with FlowJo. Positive binding was scored as “yes” and lack of binding was scored as “NO” and examples of FACS plots used to generate this table are in FIGS. 14.F and 14.G.
(§2) Chimeras were generated by mutagenesis of Chimera #2 or WT hCD39 expression vectors. Residues for mutagenesis were chosen based on divergence between human and mouse CD39. The chimeras were expressed in CHO cells and the ability of anti-human CD39 antibodies to bind the chimeras tested via FACS, as described in FIG. 14E. Table 2. Positive binding was scored as “Yes” and lack of binding was scored as “No” and examples of FACS plots used to generate this table are in FIGS. 14.F and 14.G.

[2] = molecular target: T2, human-mouse CD39 chimeras (Homo sapiens, UniProt P49961, E276G/I277V/N275G); assay: as above; settings: 15 μg/ml antibody
T2 construct: expressed in transfected cells; host or cells: CHO cells
T2 sequence (P49961 1-510 N275G/E276G/I277V): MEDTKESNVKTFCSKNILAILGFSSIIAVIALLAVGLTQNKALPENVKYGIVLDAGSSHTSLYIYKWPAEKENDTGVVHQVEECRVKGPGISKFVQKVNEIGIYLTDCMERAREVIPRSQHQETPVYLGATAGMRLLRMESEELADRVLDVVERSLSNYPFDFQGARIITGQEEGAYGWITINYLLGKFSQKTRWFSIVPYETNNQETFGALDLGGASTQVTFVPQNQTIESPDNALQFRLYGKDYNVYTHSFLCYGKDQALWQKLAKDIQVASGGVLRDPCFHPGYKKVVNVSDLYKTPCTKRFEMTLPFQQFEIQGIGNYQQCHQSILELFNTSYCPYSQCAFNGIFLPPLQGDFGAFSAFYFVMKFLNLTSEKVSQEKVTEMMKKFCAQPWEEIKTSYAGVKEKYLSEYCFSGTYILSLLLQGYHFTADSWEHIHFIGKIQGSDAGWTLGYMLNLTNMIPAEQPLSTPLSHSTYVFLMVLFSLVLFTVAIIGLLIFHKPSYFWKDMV
Method: as §1, §2

[3] = system: human-mouse CD39 chimeras; assay: as above
Method: as §1, §2

[4] = system: CD4^+ and CD8^+ T cells in stimulated PBMCs; assay: Proliferation of anti-CD3+anti-CD28 stimulated T cells (Cell Trace Violet); type: cell-based, human; settings: 50 μM ATP; 96 hours; vs isotype control
Method: Proliferation of CD4^+ and CD8^+ T cells was measured by Cell Trace Violet by flow cytometry.

[5] = system: CD39^+CD73^+SK-MEL-28 cells; assay: Adenosine generation by SK-MEL-28 cells (LC/MS); type: cell-based, human; settings: normalized to isotype control (100%) and CD39 KO cells (0%)
Method: (§3) The supernatants were analyzed for ATP levels using AmpGlo Kit (A) and for adenosine levels using LC/MS analysis (B). % Adenosine levels were normalized to isotype control (100%) and SK-MEL-28 CD39 KO cells (0%).

stimulated human PBMCs = assay: Cytokine secretion by anti-CD3+anti-CD28 stimulated PBMCs (Meso Scale Discovery); type: cell-based; settings: 96 hours
Method: Supernatants were harvested after 96 hours and cytokines were measured using a Meso Scale Discovery human cytokine kit.
Supernatants were harvested after 96 hours and analyzed by Meso Scale Discovery human cytokine kit.

hCD39-ECD = molecular target: T3, hCD39-ECD (Homo sapiens, UniProt P49961); assay: Epitope binning / competition for hCD39-ECD binding by Bio-Layer Interferometry
T3 sequence (P49961 38-478 limits assumed): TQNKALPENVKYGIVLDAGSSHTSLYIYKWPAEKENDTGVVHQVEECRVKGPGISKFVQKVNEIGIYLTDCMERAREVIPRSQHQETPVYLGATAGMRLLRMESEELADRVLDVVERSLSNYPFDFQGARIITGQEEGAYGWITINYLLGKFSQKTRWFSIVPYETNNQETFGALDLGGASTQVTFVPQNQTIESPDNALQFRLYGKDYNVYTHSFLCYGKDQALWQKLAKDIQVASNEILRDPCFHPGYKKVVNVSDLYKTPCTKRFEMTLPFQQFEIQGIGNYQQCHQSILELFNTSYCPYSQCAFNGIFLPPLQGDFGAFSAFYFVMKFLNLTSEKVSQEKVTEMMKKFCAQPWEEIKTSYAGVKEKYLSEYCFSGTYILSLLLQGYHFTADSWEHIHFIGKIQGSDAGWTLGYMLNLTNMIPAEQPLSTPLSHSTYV
Excerpt: A1 antibody was immobilized onto an Anti-Mouse IgG Fc Capture (AMC) biosensor (ForteBio). Association of hCD39-ECD was then monitored for 180 seconds via Bio-Layer Interferometry (BLI) using the Octet system (ForteBio), at which point the biosensor was dipped into competitor antibody and monitored for another 180 seconds.
The methods are the same as set forth above except that instead of A1, the representative antibody was immobilized using anti-human IgG Fc Capture (AHC) biosensor.
Also, an 18 hour incubation was used with the antibody or isotype control. Finally, an additional 30 second baseline dip in buffer between antigen capture and dipping into a second competitor antibody for 300 seconds was used.

[6] = system: CD39^+CD73^+SK-MEL-28 cells; assay: Extracellular ATP accumulation in SK-MEL-28 supernatants (AmpGlo Kit); type: cell-based, human; settings: 1 hour treatment; 50 μM ATP for 15 min
Method: as §3

B1: 31895: inhibitory anti-CD39 antibody, contacts E143-N158 incl. D150 and E153 (antibody, V domains shown)
VH: QVQLVQSGAEVKKPGASVKVSCKASGYTFKSYEMHWVRQAPGQGLEWMGRINPSVGSTWYAQKFQGRVTMTRDTSTSTVYMELSSLRSEDTAVYYCARGKREGGTEYLRKWGQGTLVTVSS
VL: EIVLTQSPGTLSLSPGERATLSCRASQSVASSYLAWYQQKPGQAPRLLIYGASNRHTGIPDRFSGSGSGTDFTLTISRLEPEDFAVYYCQQYHNAITFGGGTKVEIK
modifications: Synthetic VH, 31895; Synthetic VL, 31895
notes: D150 and E153
- binding to Chimera #2 (human E143-N158 replaced by mouse sequence) [1]: able to bind all chimeras but Chimera #2; also recorded: inability to recognize Chimera #2
- binding to Chimera #4 [2]: able to bind all chimeras but Chimera #2
- binding to Chimera #9,10 (single residues of Chimera #2 reverted to human) [3]: restore the ability
- binding to Chimeras #13,14 (two human residues co-mutated to mouse) [3]: did not impair binding
- % CD4^+ T cell proliferation [4]: increases proliferation
- % CD8^+ T cell proliferation [4]: increases proliferation
- adenosine generation (% of adenosine levels) [5]: Reduces Adenosine Generation
- secretion of INF-γ, TNF-α and IL-2 (stimulated human PBMCs; absence of exogenous ATP): increases cytokine secretion
- release of INF-γ, TNF-α, IL-2 and IL-1β (stimulated human PBMCs; fixed concentration of 50 μg/ml, presence of ATP, compared to HAO-391 and HAO mAb4): increased cytokine release by activated PBMCs to a higher degree
- secretion of INF-γ, TNF-α and IL-2 (stimulated human PBMCs; presence of exogenous ATP (50 μM)): increases cytokine secretion
- competition / binning with other anti-CD39 antibody bin groups for ECD binding (hCD39-ECD): do not bin with anti-CD39 antibody bin groups represented by antibodies A1, 27536, or 27549
- extracellular ATP accumulation [6]: Increase Extracellular ATP Accumulation
